The text below walks through data of PMC314469, “Protein Interaction Networks by Proteome Peptide Scanning” (PLoS Biology, 2004).

Experiment [1] has as its target T1, amphyphisin SH3 (AMPH_HUMAN), P49418.
T1 chain: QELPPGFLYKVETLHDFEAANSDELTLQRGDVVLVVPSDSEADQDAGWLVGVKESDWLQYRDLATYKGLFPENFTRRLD
Briefly: SPOT array.

The target in experiment [2] is endophilin SH3 (SH3G2_HUMAN), Q99962. Briefly: SPOT array.

QVDPPERPPSPPSD [Q9H4B3 193-207]: the figures for the normalised SPOT signal, Boehringer light units (BLU); mean over the file's lines of this peptide in experiment [1] and in experiment [2] were 92.2 and 326, respectively.

For the molecule QVDPPERPPPPPSD [Q9H292 194-208], the normalised SPOT signal, Boehringer light units (BLU); mean over the file's lines of this peptide in experiment [1] is 43.2; in experiment [2], 275.

QVNHLKRPVSGVGD [Q92610 1091-1104]: the normalised SPOT signal, Boehringer light units (BLU); mean over the file's lines of this peptide was 42.5 in experiment [1] and 0 in experiment [2].

As for QRSHFKRPRELEDA [P33897 430-443], the normalised SPOT signal, Boehringer light units (BLU); mean over the file's lines of this peptide in experiment [1] worked out at 64.1; in experiment [2], 29.5.

Turning to QVIRPPRPPKVLGL [P39193 571-585], the results for the normalised SPOT signal, Boehringer light units (BLU); mean over the file's lines of this peptide in experiment [1] and in experiment [2] were 8910 and 14600, respectively.

As for QVMVIKRPGRKRKA [P51608 244-257], the results for the normalised SPOT signal, Boehringer light units (BLU); mean over the file's lines of this peptide in experiment [1] and in experiment [2] were 1620 and 240, respectively.

As to QVYVLKRPYVDEFL [O14595 137-150], the values for the normalised SPOT signal, Boehringer light units (BLU); mean over the file's lines of this peptide in experiment [1] and in experiment [2] were 6.6 and 28.4, respectively.

As to QRKNLRRPPSIKGW [Q9NYL5 22-35], the normalised SPOT signal, Boehringer light units (BLU); mean over the file's lines of this peptide in experiment [1] was found to be 25.3; in experiment [2] it was 57.6.

Consider ATDLPKKPPPPEVT [Q96QH2 123-137], for which the normalised SPOT signal, Boehringer light units (BLU); mean over the file's lines of this peptide came out at 68.1 in experiment [1] and 46.8 in experiment [2].

Regarding QSSPPQRPPAPASP [BAC05814 18-32], the normalised SPOT signal, Boehringer light units (BLU); mean over the file's lines of this peptide in experiment [1] is 49.9; in experiment [2], 4000.

As to QQPPPRRPPQAPEG [Q9UPY6 301-315], the normalised SPOT signal, Boehringer light units (BLU); mean over the file's lines of this peptide in experiment [1] is 744; in experiment [2], 430.

For QVIGPHRPPELHDR [P20813 329-343], the results for the normalised SPOT signal, Boehringer light units (BLU); mean over the file's lines of this peptide in experiment [1] and in experiment [2] were 66.4 and 82.5, respectively.

For the molecule QVEKLRRPEGASNE [O75381 360-373], the normalised SPOT signal, Boehringer light units (BLU); mean over the file's lines of this peptide came to 40.3 in experiment [1] and 64.7 in experiment [2].

Turning to QSTNPKRPLSSANQ [P35670 228-241], the normalised SPOT signal, Boehringer light units (BLU); mean over the file's lines of this peptide is 35.1 in experiment [1] and 94.2 in experiment [2].

Take QVKDIRRPERRHSD [Q9UI45 1886-1899]: the normalised SPOT signal, Boehringer light units (BLU); mean over the file's lines of this peptide in experiment [1] was determined as 534; in experiment [2], 123.

Consider ATDSPRRPSRSTGG [Q9H6U6 6-19], for which the normalised SPOT signal, Boehringer light units (BLU); mean over the file's lines of this peptide in experiment [1] worked out at 11300; in experiment [2] it was 472.

Regarding ATDAPSRPGRLAGR [Q9H6H6 405-418], the normalised SPOT signal, Boehringer light units (BLU); mean over the file's lines of this peptide was 5530 in experiment [1] and 147 in experiment [2].

In the case of QVFLPPRPPKVLGL [Q9Y3F0 251-265], the normalised SPOT signal, Boehringer light units (BLU); mean over the file's lines of this peptide was 1150 in experiment [1] and 2710 in experiment [2].

Take QSLKIRRPHDYQPL [P26368 222-235]: the normalised SPOT signal, Boehringer light units (BLU); mean over the file's lines of this peptide was determined as 37.5 in experiment [1] and 93.1 in experiment [2].

Turning to QQPLPRRPGHDDGQ [Q16360 104-117], the figures for the normalised SPOT signal, Boehringer light units (BLU); mean over the file's lines of this peptide in experiment [1] and in experiment [2] were 36.8 and 106, respectively.

With QVIHPPRPPKVLGL [P39194 572-585], the normalised SPOT signal, Boehringer light units (BLU); mean over the file's lines of this peptide in experiment [1] is 117; in experiment [2], 423.

As for QVILPPRPPKVLGL [P39188 470-484], the values for the normalised SPOT signal, Boehringer light units (BLU); mean over the file's lines of this peptide in experiment [1] and in experiment [2] were 936 and 5000, respectively.

Regarding QVVGPHRPPALDDR [Q14097 329-343], the normalised SPOT signal, Boehringer light units (BLU); mean over the file's lines of this peptide in experiment [1] came to 60.7; in experiment [2], 43.1.

For the molecule QSISLRRPRLASQS [Q9UBH6 665-678], the normalised SPOT signal, Boehringer light units (BLU); mean over the file's lines of this peptide was found to be 56.1 in experiment [1] and 208 in experiment [2].

Take QVYVLKRPHVDEFL [O15194 206-219]: the figures for the normalised SPOT signal, Boehringer light units (BLU); mean over the file's lines of this peptide in experiment [1] and in experiment [2] were 19.5 and 58.8, respectively.

Consider QQQLLQRPPRDAQQ [O15350 392-405], for which the results for the normalised SPOT signal, Boehringer light units (BLU); mean over the file's lines of this peptide in experiment [1] and in experiment [2] were 3270 and 106, respectively.

Regarding QRQRPPRPPPRGTP [Q8WTU5 20-34], the normalised SPOT signal, Boehringer light units (BLU); mean over the file's lines of this peptide in experiment [1] amounted to 8800; in experiment [2] it was 11000.

As for QQPGPAKPPTQQVG [Q9Y6V0 366-380], the normalised SPOT signal, Boehringer light units (BLU); mean over the file's lines of this peptide in experiment [1] is 62.4; in experiment [2] it was 30.3.
